Reference: publication PMC7305185, “Non-cooperative 4E-BP2 folding with exchange between eIF4E-binding and binding-incompatible states tunes cap-dependent translation inhibition” (Nature Communications, 2020)

Biological target: T1, eukaryotic translation initiation factor 4E (eIF4E) (UniProt P06730 1-217)
T1 construct: eukaryotic translation initiation factor 4E; Expressed from a pET SUMO vector; The SUMO tag was cleaved with Ulp1 and removed on Ni-NTA; source: E. coli BL21-CodonPlus (DE3)-RIPL, purified (Ni-NTA, S75 gel filtration)
Assay: ITC; MicroCal ITC200; data collection as detailed in ref. 11; KD as mean and standard deviation of repeat samples (n = 3 for 5p-4E-BP2, n = 2 or 1 for the other variants)
Conditions: both partners purified

T1 sequence (P06730 whole entry): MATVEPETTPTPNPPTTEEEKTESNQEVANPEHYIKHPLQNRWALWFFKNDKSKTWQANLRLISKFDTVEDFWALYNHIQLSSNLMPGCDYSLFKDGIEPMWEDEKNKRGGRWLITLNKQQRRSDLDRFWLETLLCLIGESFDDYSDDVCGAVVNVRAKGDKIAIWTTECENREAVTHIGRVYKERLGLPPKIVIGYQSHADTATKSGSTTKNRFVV

B1: five-phospho 4E-BP2 (pT37/pT46/pS65/pT70/pS83) (natural protein, UniProt Q13542 1-120, looked up)
chain: MSSSAGSGHQPSQSRAIPTRTVAISDAAQLPHDYCTTPGGTLFSTTPGGTRIIYDRKFLLDRRNSPMAQTPPCHLPNIPGVTSPGTLIEDSKVEVNNLNNLNNHDRKHAVGDDAQFEMDI
modifications: phosphothreonine at 37, 46 and 70; phosphoserine at 65 and 83
notes: also called 5p-4E-BP2; WT 5p-4E-BP2; source: E. coli BL21-CodonPlus (DE3)-RIPL, purified (Ni-NTA, S75 gel filtration); phosphorylated with Erk2, purified again by gel filtration
With B1 as the binder, how does the Kd read?
The Kd was 15 µM.
